Experimental data as given in paper doi:10.1101/2019.12.17.880419.
Read-outs that look alike come from different tables or passages of the source.

Tests used:
Test in all cases: ITC
UHRF1 SRA [1] = target: T1, UHRF1 SRA (mouse, UniProt Q8VDF2 417-628)
T1 sequence: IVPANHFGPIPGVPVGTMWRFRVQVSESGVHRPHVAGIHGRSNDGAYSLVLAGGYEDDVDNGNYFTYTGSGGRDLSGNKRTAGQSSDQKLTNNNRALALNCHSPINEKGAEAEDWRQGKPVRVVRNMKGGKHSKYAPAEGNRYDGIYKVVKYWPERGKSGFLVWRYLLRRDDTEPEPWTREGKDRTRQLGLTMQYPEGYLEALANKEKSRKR

UHRF1 SRA [2] = target: T1, UHRF1 SRA; remark: listed apart in the source
UHRF1 SRA [3] = target: T1, UHRF1 SRA; remark: listed apart in the source
UHRF1 SRA [4] = target: T1, UHRF1 SRA; remark: listed apart in the source

B1: fully-mCHG DNA (ITC) (dsDNA)
DNA 1: TCACGCTGCGTGA
DNA 2: TCACGCTGCGTGA
modifications: 5mC on both strands in CHG context
- Kd (UHRF1 SRA [1]): 1850 ± 60 nM

B2: hemi-mCG DNA (dsDNA)
DNA 1: GCAATCCGGTAG
DNA 2: CTACCGGATTGC
modifications: 5mC on one strand in CG context
- Kd (UHRF1 SRA [2]): 640 ± 120 nM

B3: fully-mCG DNA (dsDNA)
DNA 1: CAGCTCGAGCTG
DNA 2: CAGCTCGAGCTG
modifications: 5mC on both strands in CG context
- Kd (UHRF1 SRA [3]): 4130 ± 90 nM

B4: mCH DNA (dsDNA)
DNA 1: TCATCAGTGAT
DNA 2: TCACTGATGAC
modifications: 5mC in CH context
- Kd (UHRF1 SRA [4]): 1160 ± 90 nM
